From the supplement of paper PMC9170038

System: MS2 coat protein
Assay: apparent KD of MS2 coat protein; designed switch direction (-1 OFF switch, 1 ON switch): -1; higher = weaker reporter binding
In short: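 Designed RNA switches sharing common flanks were transcribed on Illumina chips by stalled E. coli RNA polymerase. They were titrated with SNAP-549-labelled MS2 coat protein, from 0.7 or 1.5 nM doubling to 3 µM, in Tris-HCl pH 7.5 buffer with KCl, MgCl2, BSA, DTT, tRNA and Tween-20. Titrations ran without input, with 200 uM small-molecule ligand, or with an oligonucleotide input. The apparent KD of each design is the median over its clusters, after curve-fitting of normalised cluster fluorescence.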

[1] = Eterna round: R95, input ligand: microRNA oligo, concentration not stated
[2] = input ligand: microRNA oligo, concentration not stated
[3] = Eterna round: R95, input ligand: FMN 200 uM
[4] = Eterna round: R95, input ligand: none

Row | Sequence | apparent KD of MS2 coat protein [1] [nM] | apparent KD of MS2 coat protein (input ligand: FMN 200 uM) [nM] | apparent KD of MS2 coat protein (input ligand: none) [nM] | apparent KD of MS2 coat protein [2] [nM] | apparent KD of MS2 coat protein [3] [nM] | apparent KD of MS2 coat protein [4] [nM]
1 | CUUUUGUGAGGAUAUUAGUAGUAAAUAAAUUAAAUUACUACUGAGAAGGCACAUGAGGAUCACCCAUGUUCCUC [salish99_ex4_r3_057] (puzzle: Exclusion 4) | 32 | – | – | – | – | –
2 | GACUUCUGAGGAUAUACAUAGAUUUACAUGAGGAUCACCCAUGUUCCUCUAUGUAUAAAUGUAGAAGGCAGAAGAG [Mat - Exclusion 5 - JL Mod - D65] (Eterna round: R97, puzzle: Exclusion 5) | – | 70.7 | 19.7 | – | – | –
3 | UCACGGGACUGAGGAUAUACAUCAACAAUGGUUGUAGAAGGCAGAAGGUUGAAUCAUAUACUAAACAUGAGGAUCACCCAUGUU [JR_ExcNG1_Sub031] (Eterna round: R96, puzzle: Exclusion NG 1) | – | 16.4 | 24.1 | 16.6 | – | –
4 | CCCGGGUUAGGAUAUUCCUCGUGCAGCUGACAGCCACGGGAGAAGAAGGGACAUGAGGAUCACCCAUGUGAAUA [Eternabot (L2) Solution 47] (Eterna round: R97, puzzle: Exclusion 4) | – | 42 | 32.9 | – | – | –
5 | UUUAGUUCAGGAUAUGAUGAAUUAUACAUGAGGAUCACCCAUGUAGAUCCUGAAUUAACAUCAGAAGGGAACAUUU [JL-ex5-4.46 Brourd mod] (Eterna round: R97, puzzle: Exclusion 5) | – | 23 | 16.4 | – | – | –
6 | UCAUACGGUGAGGAUAUCUCCACUAAAGUGUGAAGAGAAGGCGCUACAUGAGGAUCACCCAUGUUUAUGGGCAG [Ex-6 Malc#14] (puzzle: Exclusion 6) | 56.5 | – | – | – | 27 | 116
7 | GGUCUGCGAGGAUAUACAUGAGGAUCACCCAUGUGCGAGUUACUUGUGAGGUCGGUUGGUAGAAGGCGCGGACG [JL-ex3-2.10 salish99 mod] (puzzle: Exclusion 3) | 68.6 | – | – | – | 51.9 | 86.8
8 | CUAAAUCAUGUAGGAUAUGCAUAGCAAAGCUAUGCAGAAGGACAUGAGGAUCACCCAUGUCAUUCCGUCUGGAGACAGACGGGA [Mat - Exclusion NG 1 - Mod of JL - D56] (Eterna round: R96, puzzle: Exclusion NG 1) | – | 142 | 32.5 | 25 | – | –
9 | AUAAUGUGAGGAUAUCAGUCGACUAGCUUCGGCUAGUCGACUGAGAAGGCACAUGAGGAUCACCCAUGUGUUUC [E4/15-A1] (Eterna round: R97, puzzle: Exclusion 4) | – | 41.7 | 18.7 | – | – | –
10 | AAUAAUGAGUAGGAUAUCACUAGCGAUAGCUAGUGAGAAGGACUCACAUGAGGAUCACCCAUGUGUUCCAAUAA [Mod3 Ex6/6-A4 by Brourd] (Eterna round: R97, puzzle: Exclusion 6) | – | 195 | 50.8 | – | – | –
11 | UUUGUUUAUGUAGGAUAUGCCUGGCGUGCCUUUGCAGAAGGACAUGAGGAUCACCCAUGUAUUGCGGUCUGCGUUCAGAUCGCA [salish99_ExNG1_r4_038] (Eterna round: R96, puzzle: Exclusion NG 1) | – | 43.2 | 29.4 | 30.2 | – | –
12 | AAACCUGAAGUCAGGAUAUGAAGUAUCACUGUACUUCAGAAGGGACUUGAGGAUCACCCAAGUAGCCGUGAGGC [jl-bmx4.4.67 ViennaUCT mod] (Eterna round: R97, puzzle: Brourd's mod of Exclusion 4) | – | 116 | 28.8 | – | – | –
13 | GGUGUGAGGCAGGAUAUGCAAUAAGUAAGUAAAGCAGAAGGGUCUACAUGAGGAUCACCCAUGUGUGCGGUAGA [Ex6 #1] (Eterna round: R97, puzzle: Exclusion 6) | – | 249 | 163 | – | – | –
14 | AGAUGUCCGCAGGAUAUGCGGGCGAGGCCCUAAGCAGAAGGGCGGACAUGAGGAUCACCCAUGUGAGUAAAAGA [EX6 A.23] (Eterna round: R97, puzzle: Exclusion 6) | – | 94.2 | 25.2 | – | – | –
15 | CCGCAAAUGCAGGAUAUCGUAUCGGAUACGAUACGAGAAGGGCAAACAUGAGGAUCACCCAUGUGUCCUAGCGG [Fiskers Ex 6 - 39] (puzzle: Exclusion 6) | 13.7 | – | – | – | – | –
16 | ACAAGCUCUGUGGGUGGUGACAUGAGGAUCACCCAUGUUUUGCUCGUCUUGUGCCGGCCGGCCCGCGGCCGGCCGGC [-40.6, -69.5, A 12%] (Eterna round: R97, puzzle: Sensor, turn-off variant 1) | – | 718 | 885 | – | – | –
17 | UUAAUGACUGUGAGGAUAUCGGAUAGAUAGAUAUUUGAGAAGGUACAUGAGGAUCACCCAUGUGUGAUUAGAGA [Brourd's EX4 #66] (Eterna round: R97, puzzle: Brourd's mod of Exclusion 4) | – | 246 | 253 | – | – | –

Row | Sequence | apparent KD of MS2 coat protein [1] [nM] | apparent KD of MS2 coat protein (input ligand: FMN 200 uM) [nM] | apparent KD of MS2 coat protein (input ligand: none) [nM] | apparent KD of MS2 coat protein [2] [nM] | apparent KD of MS2 coat protein [3] [nM] | apparent KD of MS2 coat protein [4] [nM]
18 | UGAACCCAUGUUAGGAUAUCAGGCCGAGGAAGUUCUGAGAAGGGACAUGAGGAUCACCCAUGUAUAAAAGAAAC [Veontiinge] (Eterna round: R96, puzzle: Brourd's mod of Exclusion 4) | – | 44.1 | 51.7 | 44.6 | – | –
19 | ACCAUGUCUGAGGAUAUGCAAGCGUACCACGCGGUAGAAGGCAGCACAUGAGGAUCACCCAUGUGGGUAUGCUA [Inanenqu] (puzzle: Exclusion 6) | 9.92 | – | – | – | 15.3 | 14.8
20 | AAAGAUGUAGGAUAUGUCCAUCCAGACAUGAGGAUCACCCAUGUGAGGGCCGGGUGUUGGGCAGAAGGACACCGGU [Eternabot (Original) Solution 19] (Eterna round: R97, puzzle: Exclusion 5) | – | 27.2 | 31.4 | – | – | –
21 | GGUACUAACACGAUAGUGUUAGUACUAUAAGCUUGUGUUACAUGAGGAUCACCCAUGUCCUCAUAAGCUCGUCUUGA [Mat - Sensor v3 - Turn-off var 2 - D91] (puzzle: Sensor v3, turn-off variant 2) | 640 | – | – | – | 38 | 36
22 | GCACUGACAGGAUAUACAUGAGGAUCACCCAUGUGACCCUUAUAGUACUCGCGUACUAGUAGAAGGGUCUGUGC [Omei Ex3 Model Bachelor's Dilema v33] (Eterna round: R97, puzzle: Exclusion 3) | – | 324 | 59.4 | – | – | –
23 | GCCGUUAAGGUAGGAUAUGCUCGGUCUGUGCGUGCAGAAGGGCUGGUCGGCGACUUGAGGAUCACCCAAGUGGUCUUAUAGAAA [Mutated MS2 EX1.21] (Eterna round: R96, puzzle: Exclusion NG 1) | – | 121 | 64.8 | 142 | – | –
24 | AGCUGACGAGGAUAUACAUGAGGAUCACCCAUGUUGGUCAAGCGACUUCGGUCGCAAUGUAGAAGGCGUCAGCU [E3/8-A4] (Eterna round: R97, puzzle: Exclusion 3) | – | 263 | 430 | – | – | –
25 | UGCGUGUGAGGAUAUGCGCGUGGCGAUCUUAAGUUACGCAAGCAGAAGGCACAUGAGGAUCACCCAUGUGGCCA [Eternabot (L1) Solution 20] (Eterna round: R97, puzzle: Exclusion 4) | – | 98.5 | 20.3 | – | – | –
26 | UUUAAUUUUUUUUUUUUACAAGCUUUUUGCUCGUCUUAUACAUGAGGAUCACCCAUGUGGGUAGAAGGUAAAUUAUC [JMF 66] (puzzle: Sensor v3, turn-off variant 2) | 64.9 | – | – | – | 24.3 | 22.4
27 | AUAUUAAUAGUAAGGAUAUGCGUGUAUGUAGUUAUGCAGAAGGUACAUGAGGAUCACCCAUGUAUUAAUGUGUG [LRO-BmodExc4-06-Oppy's Opus] (Eterna round: R97, puzzle: Brourd's mod of Exclusion 4) | – | 21.6 | 17.3 | – | – | –
28 | UUAUUAUAUGUAGGAUAUGCAUAUUGUUAUUAUGCAGAAGGACAUGAGGAUCACCCAUGUAUAUUAUUAUUAUAUAUUAUAUAU [Title] (Eterna round: R96, puzzle: Exclusion NG 1) | – | – | – | 23.3 | – | –
29 | AUUUUGUGAGGAUAUGUGGCUUCGAUCGUAAAAACGAGGCUACAGAAGGCACAUGAGGAUCACCCAUGUUCCUA [salish99_ex4_r4_119] (Eterna round: R97, puzzle: Exclusion 4) | – | 194 | 24 | – | – | –
30 | CCAAUGUAAGGAUAUCGUGCAAGUUUCAAAAGAGGCUUGUGCGAGAAGGUACAUGAGGAUCACCCAUGUAGGUU [Omei Ex4 B2] (Eterna round: R97, puzzle: Exclusion 4) | – | 340 | 78.4 | – | – | –
31 | AGCAGACGAGGAUAUGAUAAUUAAUACAUGAGGAUCACCCAUGUAAUACUGAUCGAUAGAUCAGAAGGCGUCUGCU [E5/3-A2] (Eterna round: R97, puzzle: Exclusion 5) | – | 14.7 | 16.4 | – | – | –
32 | CAUAUUGUAGGAUAUAUUCGAAAGGUCCUCUUCCCAUACCGACAUGAGGAUCACCCAUGUAGAAGGAUAGUGCC [Eternabot (L2) Solution 13] (Eterna round: R97, puzzle: Exclusion 2) | – | 48.9 | 53.6 | – | – | –
33 | GAGUGAAGUGCAGGAUAUCUAGAAGGAAGAAGGAGGAAACAUGAGGAUCACCCAUGUAAUCCAUAAGAGAAGGGCGGAGAGGAG [An ugly monster] (Eterna round: R96, puzzle: Exclusion NG 2) | – | 16.3 | 18.3 | 14.3 | – | –
